Source: the DeepSol protein solubility set

Assay: soluble on expression in E. coli; label from the status in PepcDB or PDB records

| Sequence | soluble on expression in E. coli |
| --- | --- |
| MGSDKIHHHHHHMYETFEKLPDGKKEQIIQVCIEEFIENGYQNASTNTIVKRLGISKGVLFLYFKNKKNLYLYLVEYIMEFFIQDYFEEYAGGPVININVFDNLGEYYKELMQKKPELFLFMLQAFVNTPAELKEEIDARHNQAHDSLFRHMNNEGFRPGIDIHLVDDLLHMVSYYVGQLITNDLKGKDLNTIIKDEINKNIVRYAELFAKYVDILKYGVYER | not soluble |
| MGSDKIHHHHHHMLVLNNLQKKFTNSKMVLNNVNAKFRSGSINCIVGVNGAGKTTLLNIISSILMPTKGDVYLNSESIFENSTLKKEIFYTPVNPFFYENLSAKDNLYLICSLYNRKIDQITIEKTIKDVGLNIEDLNIPVYNFSSGMKQKLNFASMLLVDSNVLLLDEPFNALDHVAQKNFTRILKGLVSKEKIIIFTSHLPNTILELSENIYLLKDGCFTDKRKAQSFNQTTLETWLLESQKEVIPYEEK | not soluble |
| SNAMPLPKSLKYGDTIGIYSPSSPVTYTSPKRFERAKSYLLQKGFHILEGSLTGRYDYYRSGSIQERAKELNALIRNPNVSCIMSTIGGMNSNSLLPYIDYDAFQNNPKIMIGYSDATALLLGIYAKTGIPTFYGPALVPSFGEFEPFVDDTYKYFLETLLHDQALPYNIKQPLFWSDEFINWEEKTKEKELRPNNWISVTNGQATGRVIGGNLNTIQGIWGSPYMPCIQEGDILFIEDSSKDAATIERSFSFLKINGVFDKVSGIILGKHEQFDDCGTNRKPYEILLEVLQNQRIPLLADFDCCHTHPMITMPIGVQVKMDATNKTIHILEKWKI | soluble |
| MGHHHHHHSHMSKAIKQNLADSKKMSAELFCLTYGAMVTEMLKDYEDPKDVTIQLDKMGFNMGTRLADDFLAKNANVPRCVDTRQIADVLCRNAIPCYLGISATASSWTSGDREFTITLEANPLTELVQVPAHLVSAGLSYSQLIAGAIRGALEAVHFKVYASATDTGANTEIRIRFDQVLKDSLPAGEDD | soluble |
| MNMPKRYSEMTPHELREEIGALKEQAVKAEQLGIVNEFDVLMRKMAMARAYMTDINKFHIGETYELVEEPGVLFKITYFNGVFAWGYKQNDNEEIGIPISLLQEK | not soluble |
| MTAQTPRPYPSPYGRGNWYADTVTDVPASPPLDGDVAAEVCIIGAGFTGLGAALALGSRAVVLEAGRIGCAASGRNGGQVHTGQRRDQAWLEKTVGRDDALALWRLAEEARAHFASLVTAIDCDWRPGMIHARHKPGGEAEDADYLALMADRYGYDQLELIGETALAHELGTDVYHGGLADHGGGHVHPLKLAQGMAAQARAAGAVIHENTRADAWRREGGKIVVETGGGRVTCDQLILSGDGLLNRMAGPAQARVMPINNFIAVTAPLGALADEIIRSNAAVSDSRFVVNYFRKTPDGRLLFGGGENYRPGFPHDIAGLVRKNLAKIYPRLADVEITHAWGGTLGITFSRMPFVGEVAQGVRVAAGYSGQGVMLAPYVGKLLAEAALGETGPVDLLSRLPTPPFPGGRLLRWPLTVAGLSWYALRDRLLEHHHHHH | not soluble |
| MKLSEIYNFLDQLSPFNIQESWDNSGILLGDRDSEISTVYLSLDIDENIIKEASENSLIITHHPLIFKGLKDLYDKTYPRAFIKEMIYKNISLISMHTNYDLSHLNTYFTEEILGFKISFKDKFLIYVENSMSFEALCDWVKKKLNLQILRVSDCGKKDIKRIAICTGSGGDLISKVDADCFLSGDFKYHQALEALSNQISLIDLGHFESERYFSQCLAKDLKNLPLQVIITVSKNPFQYFLEHHHHHH | soluble |
| MAHHHHHHMSAAGRLIRIRKKSKWIDRRSKRIPHNGKDVWQFGEQPSCALCHVRFRFKQDYEAHKESELHQNRLRWVETMKWWEEIGEPHHQQHAASEWEWFRQRVLPAKAAAMGLSEEDAARELRRAVMHETPRWYSRIQPPNARSEIKEPRDQRWPSSPKW | not soluble |
| MTSYEEETDYRNVPRELLDNNIPMGRGMIKWAPFATLPEQFETIQQYIIDQNKITRPVLSDDQLAELNIRLHEALQYAQPVEVKFYNNGFVDSVRLTIYRIDAINYEIDGYVYNQQQRQKISIFDILDIVLLP | not soluble |
| MLTIQFLCPLPNGLHARPAWELKEQCSQWQSEITFINHRQNAKADAKSSLALIGTGTLFNDSCSLNISGSDEEQARRVLEEYIQVRFIDSDSVQPTQAELTAHPLPRSLSRLNPDLLYGNVLASGVGVGTLTLLQSDSLDSYRAIPASAQDSTRLEHSLATLAEQLNQQLRERDGESKTILSAHLSLIQDDEFAGNIRRLMTEQHQGLGAAIISNMEQVCAKLSASASDYLRERVSDIRDISEQLLHITWPELKPRNKLVLEKPTILVAEDLTPSQFLSLDLKNLAGMILEKTGRTSHTLILARASAIPVLSGLPLDAIARYAGQPAVLDAQCGVLAINPNDAVSGYYQVAQTLADKRQKQQAQAAAQLAYSRDNKRIDIAANIGTALEAPGAFANGAEGVGLFRTEMLYMDRDSAPDEQEQFEAYQQVLLAAGDKPIIFRTMDIGGDKSIPYLNIPQEENPFLGYRAVRIYPEFAGLFRTQLRAILRAASFGNAQLMIPMVHSLDQILWVKGEIQKAIVELKRDGLRHAETITLGIMVEVPSVCYIIDHFCDEVDFFSIGSNDMTQYLYAVDRNNPRVSPLYNPITPSFLRMLQQIVTTAHQRGKWVGICGELGGESRYLPLLLGLGLDELSMSSPRIPAVKSQLRQLDSEACRELARQACECRSAQEIEALLTAFTPEEDVRPLLALENIFVDQDFSNKEQAIQFLCGNLGVNGRTEHPFELEEDVWQREEIVTTGVGFGVAIPHTKSQWIRHSSISIARLAKPIGWQSEMGEVELVIMLTLGANEGMNHVKVFSQLARKLVNKNFRQSLFAAQDAQSILTLLETELTF | soluble |
| MGSDKIHHHHHHMLLSMNRVSNPFRATLGSTPPYLAGRRHEIEDFAEALDDGPGAHERISLITGLRGVGKTVLLNAFEEEARARSWWVISETATAGFTERIIDALFRKASEILHTHRRKLSGITLPSIGGIQFSDILEHQPKITLRSVLTEILSWQEEIDRKLGQDSVGLLITLDELHYHRREEVIDFGATIQHLVREDLNISVAMAGIPQSIKPLLASEEGKNPVTFLRRANRIDLGLIDNNEVRKALAEPVEKVGVTWESDALTDAAEACGGYPFMIQLIGQQCFKRKRSNFITVGSVAEAAVVAKRKLGQLVHEPALADLSEVDRTFLVAMAADDGPSTMSDIAQRLGVNSQYAGNYRRRLIDAEIITSSGYGQVDFELPYMREYLREHAVVDVFKQ | not soluble |
| MSLRGESSGLMAYKAEDIYFTLFNGLHGSAHGHASTGGFTLQLQGDDLFSDSGRYSYVNKSERLQLKECASHNTMFIAENPHTLVSDTWGYDKLPTPLFQQIKELSVGFFAECGWLDKADQNPMIFERSFIYLKSINSVVIIDSFAGQKETEITSTYNLAPSINCQKEAHRFALTTNKHKYTLLFAGGQTQQSVAKGSEIYNQLNEHPRLSNKFCYKTGKEIQATVISPLEDIQITPIKVSQTGENEQFCQAKGFRIIAGSEKFDLFVMREDIVKGNKLLVSEYGQFFYGRLVLIDQKEAKIRIKEGHHHHHH | soluble |
| MFGNLQGKFIIATPEMDDEYFDRTVIYICEHNDNGTIGVIINTPTDLSVLELLTRMDFQMAKPRIYTQDQMVLNGGPVNQDRGFIVHSKTDHEFTHSYKVTDDITLTTSGDVLDSFGTQTAPEKFIVCLGCSTWKPHQLEQEIAQNYWLLSEANNQTLFETSYLDRWVEANEMLGISGILAPAGRALEHHHHHH | soluble |
| MAMSLREELWLWKKEKLAEHVANNLRKKKHEVWIARDREEILERVKELIPEGATVSAGGSLTLADTGVIELLRSGRYNFLDRAAAKTREEVEEIYRKSFWADYYFTSVNAITEDGKLVFLDGNGNRVAAVVFGPKNVVVIASVNKVVKDVEEARERLRYISPMNSKRLNLETPCTKTGFCADCSSPQRICDYFLVVESGVRQPGRFKVILTLEDFGLLEHHHHHH | not soluble |
| GDTKEQRILNHVLQHAEPGNAQSVLEAIDTYCEQKEWAMNVGDKKGKIVDAVIQEHQPSVLLELGAYCGYSAVRMARLLSPGARLITIEINPDCAAITQRMVDFAGMKDKVTLVVGASQDIIPQLKKKYDVDTLDMVFLDHWKDRYLPDTLLLEECGLLRKGTVLLADNVICPGAPDFLAHVRGSSCFECTHYQSFLEYREVVDGLEKAIYKGP | soluble |
| SHEVVRDVPAMVVDRSNSTLSREYLRRVDATPEVSIVGHCTDMEEAKEQIRRRNAYGIIYVPEDFSEHLNTGRKAHISLYCDMSGLLYYKSLLIANTLVSLEMNKEIKIARSVGATERQGEIISYPIDYEDVALYNPTV | not soluble |
| MGSDKIHHHHHHMLEQSIEAFKACVNDWLSAIAQLGEKPNRGNLHRFAYRAIRDKYPQLHSNVVQDAMNLAIEIYRSWLKNGGEFPKFRSDVIYFKGVDVRIENNGLVVPLMGRRVYLPLYVPKKYKKYLQYKHGRVIIKRVDKDWYALVSVNVPEKEPIKPVGTIGVDLGYYNLLVASDEKGRVVMRVQGDILIRHKEHMERLTARRQERLMKKFGIYARTNHKDRRFVNDLNHKIAKALVLKAKQLNRAIVLEKLKGLKKQRRPKLLRKILHLWSYADLIAKIVYKAKLYGVPVIFVSPRGTSKTCSNCGYYVRTFKDDRVFRCPKCGFVADRDYNASINIAKKGLEELRKRTFLPTLKDEASSPQGW | not soluble |
| GAMDPAVMKIEYYSQVLDMEWGVNVLYPDANRVEEPECEDIPVLYLLHGMSGNHNSWLKRTNVERLLRGTNLIVVMPNTSNGWYTDTQYGFDYYTALAEELPQVLKRFFPNMTSKREKTFIAGLSMGGYGCFKLALTTNRFSHAASFSGALSFQNFSPESQNLGSPAYWRGVFGEIRDWTTSPYSLESLAKKSDKKTKLWAWCGEQDFLYEANNLAVKNLKKLGFDVTYSHSAGTHEWYYWEKQLEVFLTTLPIDFKLEERLT | soluble |
| MGHHHHHHSHMFEFKHIKAFDRAFADNPGPMVVFATPGMLHAGQSLQIFRKWAGNEKNMVIMPGYCVQGTVGHKILSGQRKLEMEGRQVLEVKMQVEYMSFSAHADAKGIMQLVGQAEPESVLLVHGEAKKMEFLKQKIEQELRVNCYMPANGETVTLPTSPSIPVGISLGLLKREMAQGLLPEAKKPRLLHGTLIMKDSNFRLVSSEQALKELGLAEHQLRFTCRVHLHDTRKEQETALRVYSHLKSVLKDHCVQHLPDGSVTVESVLLQAAAPSEDPGTKVLLVSWTYQDEELGSFSHLC | not soluble |
| MELRVGNKYRLGRKIGSGSFGDIYLGANIASGEEVAIKLECVKTKHPQLHIESKFYKMMQGGVGIPSIKWCGAEGDYNVMVMELLGPSLEDLFNFCSRKFSLKTVLLLADQMISRIEYIHSKNFIHRDVKPDNFLMGLGKKGNLVYIIDFGLAKKYRDARTHQHIPYRENKNLTGTARYASINTHLGIEQSRRDDLESLGYVLMYFNLGSLPWQGLKAATKRQKYERISEKKMSTPIEVLCKGYPSEFSTYLNFCRSLRFDDKPDYSYLRQLFRNLFHRQGFSYDYVFDWNMLKFGAARNPEDVDRERREHEREERMGQLRGSATRALPPGPPTGATANRLRSAAEPVASTPASRIQPAGNTSPRAISRVDRERKVSMRLHRGAPANVSSSDLTGRQEVSRIPASQTSVPFDHLGK | not soluble |
| SQFVLQDLQDATLGSLLSSLMQHCDPPQRKYPLEKGTPPPWWPTGNEEWWVKLGLPKSQSPPYRKPHDLKKMWKVGVLTAVINHMLPDIAKIKRHVRQSKCLQDKMTAKESAIWLAVLNQEESLIQQ | soluble |
